Measured values taken from patent publication US20150344570A1 (published 2015).

T1: FcγRIIa H (human, UniProt P12318 34-217)
T1 construct: extracellular domain; also called FcgRIIa H; FcγRIIa type H
T1 sequence (looked up): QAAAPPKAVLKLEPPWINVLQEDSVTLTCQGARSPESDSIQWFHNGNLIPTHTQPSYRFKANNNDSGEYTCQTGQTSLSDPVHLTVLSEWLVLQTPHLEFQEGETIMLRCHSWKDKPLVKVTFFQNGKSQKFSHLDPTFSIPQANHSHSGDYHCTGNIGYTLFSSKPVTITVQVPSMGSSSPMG

T2: FcγRIIb (human, UniProt P31994 43-217)
T2 construct: extracellular domain; also called FcgRIIb; 2b
T2 sequence (looked up): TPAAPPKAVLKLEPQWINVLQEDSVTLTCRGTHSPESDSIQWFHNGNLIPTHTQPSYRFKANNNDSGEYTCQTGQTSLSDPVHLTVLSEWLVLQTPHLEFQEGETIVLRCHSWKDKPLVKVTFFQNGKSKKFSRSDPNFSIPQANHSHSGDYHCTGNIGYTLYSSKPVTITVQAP


What was measured:
[1] = biological target: T1, FcγRIIa H; experiment: SPR (Biacore); He/Con_2aH divided by He/Con_2b (FcγRIIa H over FcγRIIb)
[2] = biological target: T1, FcγRIIa H; experiment: SPR (Biacore), antibody captured, FcγR analyte; binding relative to GpH7-A5/GpH7-B3/GpL16-k0 = 100
[3] = biological target: T2, FcγRIIb; experiment: as above

Row | Binder | He_2aH/2b (IIaH/IIb) [1] [ratio] | He/Con_2aH [2] | He/Con_2b [3]
1 | GpH7-A5/GpH7-B3 variant G237_09D/GpL16-k0 (antibody, human IgG1, kappa, Heterodimerized antibody, alteration in one H chain only; also called He Ab G237D) heavy 1: not shown heavy 2: not shown light: DIVMTQSPLSLPVTPGEPASISCQASESLVHSNRNTYLHWYLQKPGQSPQLLIYKVSNRFSGVPDRFSGSGSGTDFTLKISRVEAEDVGVYYCSQNTHVPPTFGQGTKVEIERTVAAPSVFIFPPSDEQLKSGTASVVCLLNNFYPREAKVQWKVDNALQSGNSQESVTEQDSKDSTYSLSSTLTLSKADYEKHKVYACEVTHQGLSSPVTKSFNRGEC | 0.05 | 11.1 % of control | 223 % of control
2 | GpH7-A5/GpH7-B3 variant G237_10E/GpL16-k0 (antibody, human IgG1, kappa, Heterodimerized antibody, alteration in one H chain only; also called He Ab G237E) heavy 1: not shown heavy 2: not shown light: DIVMTQSPLSLPVTPGEPASISCQASESLVHSNRNTYLHWYLQKPGQSPQLLIYKVSNRFSGVPDRFSGSGSGTDFTLKISRVEAEDVGVYYCSQNTHVPPTFGQGTKVEIERTVAAPSVFIFPPSDEQLKSGTASVVCLLNNFYPREAKVQWKVDNALQSGNSQESVTEQDSKDSTYSLSSTLTLSKADYEKHKVYACEVTHQGLSSPVTKSFNRGEC | 0.13 | 15.1 % of control | 114 % of control
3 | GpH7-A5/GpH7-B3 variant G237_06M/GpL16-k0 (antibody, human IgG1, kappa, Heterodimerized antibody, alteration in one H chain only; also called He Ab G237M) heavy 1: not shown heavy 2: not shown light: DIVMTQSPLSLPVTPGEPASISCQASESLVHSNRNTYLHWYLQKPGQSPQLLIYKVSNRFSGVPDRFSGSGSGTDFTLKISRVEAEDVGVYYCSQNTHVPPTFGQGTKVEIERTVAAPSVFIFPPSDEQLKSGTASVVCLLNNFYPREAKVQWKVDNALQSGNSQESVTEQDSKDSTYSLSSTLTLSKADYEKHKVYACEVTHQGLSSPVTKSFNRGEC | 0.14 | 17.8 % of control | 130 % of control
4 | GpH7-A5/GpH7-B3 variant G237_15Y/GpL16-k0 (antibody, human IgG1, kappa, Heterodimerized antibody, alteration in one H chain only; also called He Ab G237Y) heavy 1: not shown heavy 2: not shown light: DIVMTQSPLSLPVTPGEPASISCQASESLVHSNRNTYLHWYLQKPGQSPQLLIYKVSNRFSGVPDRFSGSGSGTDFTLKISRVEAEDVGVYYCSQNTHVPPTFGQGTKVEIERTVAAPSVFIFPPSDEQLKSGTASVVCLLNNFYPREAKVQWKVDNALQSGNSQESVTEQDSKDSTYSLSSTLTLSKADYEKHKVYACEVTHQGLSSPVTKSFNRGEC | 0.17 | 25.4 % of control | 152 % of control
5 | GpH7-A5/GpH7-B3 variant G237_16H/GpL16-k0 (antibody, human IgG1, kappa, Heterodimerized antibody, alteration in one H chain only; also called He Ab G237H) heavy 1: not shown heavy 2: not shown light: DIVMTQSPLSLPVTPGEPASISCQASESLVHSNRNTYLHWYLQKPGQSPQLLIYKVSNRFSGVPDRFSGSGSGTDFTLKISRVEAEDVGVYYCSQNTHVPPTFGQGTKVEIERTVAAPSVFIFPPSDEQLKSGTASVVCLLNNFYPREAKVQWKVDNALQSGNSQESVTEQDSKDSTYSLSSTLTLSKADYEKHKVYACEVTHQGLSSPVTKSFNRGEC | 0.3 | 16.4 % of control | 55.2 % of control
6 | GpH7-A5/GpH7-B3 variant G237_13S/GpL16-k0 (antibody, human IgG1, kappa, Heterodimerized antibody, alteration in one H chain only; also called He Ab G237S) heavy 1: not shown heavy 2: not shown light: DIVMTQSPLSLPVTPGEPASISCQASESLVHSNRNTYLHWYLQKPGQSPQLLIYKVSNRFSGVPDRFSGSGSGTDFTLKISRVEAEDVGVYYCSQNTHVPPTFGQGTKVEIERTVAAPSVFIFPPSDEQLKSGTASVVCLLNNFYPREAKVQWKVDNALQSGNSQESVTEQDSKDSTYSLSSTLTLSKADYEKHKVYACEVTHQGLSSPVTKSFNRGEC | 0.27 | 29.8 % of control | 111 % of control
7 | GpH7-A5/GpH7-B3 variant G237_08L/GpL16-k0 (antibody, human IgG1, kappa, Heterodimerized antibody, alteration in one H chain only; also called He Ab G237L) heavy 1: not shown heavy 2: not shown light: DIVMTQSPLSLPVTPGEPASISCQASESLVHSNRNTYLHWYLQKPGQSPQLLIYKVSNRFSGVPDRFSGSGSGTDFTLKISRVEAEDVGVYYCSQNTHVPPTFGQGTKVEIERTVAAPSVFIFPPSDEQLKSGTASVVCLLNNFYPREAKVQWKVDNALQSGNSQESVTEQDSKDSTYSLSSTLTLSKADYEKHKVYACEVTHQGLSSPVTKSFNRGEC | 0.09 | 13.9 % of control | 148 % of control
8 | GpH7-A5/GpH7-B3 variant G236_09D/GpL16-k0 (antibody, human IgG1, kappa, Heterodimerized antibody, alteration in one H chain only; also called He Ab G236D) heavy 1: not shown heavy 2: not shown light: DIVMTQSPLSLPVTPGEPASISCQASESLVHSNRNTYLHWYLQKPGQSPQLLIYKVSNRFSGVPDRFSGSGSGTDFTLKISRVEAEDVGVYYCSQNTHVPPTFGQGTKVEIERTVAAPSVFIFPPSDEQLKSGTASVVCLLNNFYPREAKVQWKVDNALQSGNSQESVTEQDSKDSTYSLSSTLTLSKADYEKHKVYACEVTHQGLSSPVTKSFNRGEC | 0.54 | 89.8 % of control | 167 % of control
